{
  "source": "patent US20260102468A1",
  "about": "“COMPOSITIONS AND METHODS FOR MARCO INHIBITION AND IMPROVED DRUG DELIVERY” (BOARD OF REGENTS, THE UNIVERSITY OF TEXAS SYSTEM, priority 2022, published 2026)",
  "molecules": {"B1": {"name": "SRCR: recombinant mouse MARCO protein scavenger receptor cysteine-rich (SRCR) domain, SEQ ID NO: 2 (protein)", "chain": "MGWSCIILFLVATATGVHSHHHHHHQRVRIMGGTNRGRAEVYYNNEWGTICDDDWDNNDATVFCRMLGYSRGRALSSYGGGSGNIWLDNVNCRGTENSLWDCSKNSWGNHNCVHNEDAGVECS", "modifications": "MARCO SRCR"}},
  "key": {"[1]": {"tested_on": "liver CD11b+ cells", "assay": "Doxorubicin uptake by liver CD11b+ cells in treated mice (flow cytometry)", "assay_type": "in vivo", "settings": "flow cytometry of digested liver cells"}, "[2]": {"tested_on": "macrophages", "assay": "Nanoparticle uptake (phagocytosis) by macrophages after MARCO knockdown or blockade", "assay_type": "cell-based, mouse", "settings": "with or without incubation with recombinant MARCO protein", "description": "The effect of MARCO expression on nanoparticle uptake by macrophages in vitro was tested. […] On day 5 following macrophage collection and culture, the siRNAs were mixed with the DharmaFECT 4 transfection reagent (Horizon, T-2004-02) at a final concentration of 100 nM, after which the cells were incubated with the siRNA for 48 hours. The siRNAs used in this study were as follows: Control siRNA (Cell Signaling Technology, 6568S) and Marco siRNA (Millipore Sigma, SASI_Mm01_00200135, SASI_Mm02_00319301).\nScale bar=50 μm. White arrows indicate cells that have taken up nanoparticles. […] Unpaired t-test.\nFor the nanoparticle phagocytosis assay, cells were plated in Costar 24-well Clear Flat Bottom Ultra-Low Attachment Multiple Well Plates (Corning, 3473) at a density of 10^5 cells/well. Nanoparticles or drug were added to the wells at the following concentrations: nanoparticles, 10^2-10^4/cell; Abraxane, 1 μg/mL; doxorubicin (Doxil), 20 μg/mL. Plates were then transferred to a cell culture incubator, and 2 hours later the cells were collected and washed followed by fixation with 4% paraformaldehyde. The cells were stained with fluorescence-labeled antibodies and analyzed by flow cytometry. The mean fluorescence intensity or the percentage of fluorescence-positive cells was used to compare the uptake of nanoparticles or drug."}, "[3]": {"set-up": "species or system mice", "settings": "mouse, in vivo, iv", "description": "Anti-MARCO, monoclonal MARCO antibody, clone ED31, 2.5 mg/kg; rMARCO, recombinant MARCO protein SRCR domain, 0.3 mg/kg; NP, 100 nm nanoparticles, 10^11 particles injected through tail vain. n=3 mice for each treatment group at each time point. One way ANOVA with correction for multiple comparison was used to compare the difference between NP and other treatment groups. Error bars are means±SD.\nBlockade of MARCO-nanoparticle interaction decreased nanoparticle uptake by liver in mice. Two strategies for blocking the MARCO-nanoparticle interaction were tested: with antibody to directly block the MARCO receptors on the cell or with recombinant MARCO protein to saturate the MARCO binding capacity of the particles. Young female C57BL6 background mice (aged 6 weeks) were intravenously injected with fluorescence-labelled 100 nm PEGylated polystyrene nanoparticles (NP, 10^11 particles per 20 g of body weight) with or without recombinant MARCO protein (SRCR domain, 0.3 mg/kg). Liver IVIS imaging was done 4 h after the injection. […] Unpaired t-test."}, "[4]": {"tested_on": "E0771 tumor cells", "assay": "E0771 breast cancer mouse model, ABRAXANE plus MARCO blockade", "assay_type": "in vivo, mice", "description": "For this study, one million E0771 tumor cells were implanted in young female C57BL6 mice (aged 6 weeks old). Tumor growth was measured every 3 days with calipers. Tumor volume was calculated as: Volume=0.5×Length×Width^2. When tumor volume reached around 60-80 mm^3 the treatment was started. The mice were treated with paclitaxel-protein particles (ABRAXANE®, 20 mg/kg) or ABRAXANE® plus MARCO blockade agents (anti-MARCO antibody, 2.5 mg/kg; ECD (extracellular domain), MARCO protein extracellular domain, 1.5 mg/kg; SRCR, or MARCO protein scavenger receptor cysteine-rich (SRCR) domain, 0.3 mg/kg). IgG plus 0.9% sodium chloride was used as a control.\nOne-way analysis of variance with post hoc testing was used to compare tumor volumes at day 18 after treatment. Error bars are means±S.E.M. We used the same experimental setup with the breast E0771 tumor model and treatment doses as the young animals (ABRAXANE®, 20 mg/kg, and/or MARCO protein scavenger receptor cysteine-rich (SRCR) domain, 0.3 mg/kg).\nTo determine the specificity of the effects of recombinant MARCO protein blockade, additional control experiments in which mouse serum protein was used as an irrelevant protein control and the ECD^Δ as the minimal-binding MARCO control were performed."}, "[5]": {"tested_on": "E0771 tumor cells", "assay": "E0771 breast cancer mouse model, DOXIL plus MARCO blockade", "assay_type": "in vivo, mice", "settings": "DOXIL 2 mg/kg + SRCR 0.3 mg/kg", "description": "For this study, one million E0771 tumor cells were implanted in young female C57BL6 mice (aged 6 weeks old). Tumor growth was measured every 3 days with calipers. Tumor volume was calculated as: Volume=0.5×Length× Width^2. When tumor volume reached around 60-80 mm^3 the treatment was started. The mice were treated with Doxil (DOXIL®, 2 mg/kg) or DOXIL® plus MARCO blockade agent (MARCO recombinant protein, SRCR domain, 0.3 mg/kg). 0.9% sodium chloride was used as a control. All agents were injected intravenously 2 times each week for a total of 5 treatments. FIGS. 9A and 33A-33B show growth curves for the E0771 mice treated by DOXIL® or DOXIL® plus MARCO blockade. n=5-6 mice in each treatment arm. Un-paired t-test was used to compare tumor volumes at day 18. […] FIGS. 33C-33D show survival curves of young and old mice bearing E0771 tumors in the groups treated with Doxil (DOXIL®, 2 mg/kg) or DOXIL® plus MARCO blockade agent (MARCO recombinant protein, SRCR domain, 0.3 mg/kg).\nControl vs. MARCO or Doxil vs. DoxM were compared with unpaired/tests. Error bars are means±S.E.M. The present inventors used the same experimental setup with the breast E0771 tumor model and treatment doses as the young animals (DOXIL®, 2 mg/kg, and/or MARCO protein scavenger receptor cysteine-rich (SRCR) domain, 0.3 mg/kg)."}, "[6]": {"tested_on": "nab-paclitaxel", "assay": "Pull-down of nab-paclitaxel by recombinant MARCO proteins (Western blot of albumin)", "assay_type": "binding", "settings": "0.1 mg/mL SRCR, 0.5 mg/mL ECD or 0.4 mg/mL ECD^Δ with nab-paclitaxel 5 mg/mL, His-tag pulldown", "description": "(§1) Consistent with a previous report (Brannstrom, A., et al. 2002. Biochem Biophys Res Commun 290, 1462-1469), the SRCR^R→A and SRCR^Δ mutations of MARCO were not expressed. […] Next, the binding capacity of MARCO to particles and nanomedicine was tested. Centrifugal filters were used to isolate unbound MARCO after incubating the SRCR (0.1 mg/mL) with different concentrations of nanoparticles. The MARCO recombinant proteins (0.1 mg/mL SRCR, 0.5 mg/mL ECD, or 0.4 mg/mL ECD^Δ) were incubated with nab-paclitaxel (5 mg/mL, paclitaxel concentration). After 15 min at room temperature with gentle shaking, the mixture was further incubated with the Dynabeads His-Tag isolation and Pulldown (ThermoFisher, Cat. #10103D). After magnetic separation and three washes with PBS, the beads were boiled in western blot sample buffer for subsequent western blotting. Primary antibodies used for western blots were albumin, CST, Cat. #4929, 1:1000; and His-Tag, CST, Cat. #2365, 1:1000. To test the binding capacity of MARCO, 0.1 mg/mL of SRCR was incubated for 15 min at room temperature with different concentrations of nab-paclitaxel or nanoparticles. The mixture was centrifuged through a 30-kDa cutoff filter (Millipore, UFC903096) at 1000 g for 30 minutes. The unbound SRCR in the lower part of the tube was examined by western blotting. […]"}, "[7]": {"biological_target": "T1, MARCO (Mus musculus, UniProt Q60754)", "T1 construct": "secretion signal peptide (N); host or cells: Expi293 cells", "T1 sequence (Q60754 with tags, fused parts or gaps)": "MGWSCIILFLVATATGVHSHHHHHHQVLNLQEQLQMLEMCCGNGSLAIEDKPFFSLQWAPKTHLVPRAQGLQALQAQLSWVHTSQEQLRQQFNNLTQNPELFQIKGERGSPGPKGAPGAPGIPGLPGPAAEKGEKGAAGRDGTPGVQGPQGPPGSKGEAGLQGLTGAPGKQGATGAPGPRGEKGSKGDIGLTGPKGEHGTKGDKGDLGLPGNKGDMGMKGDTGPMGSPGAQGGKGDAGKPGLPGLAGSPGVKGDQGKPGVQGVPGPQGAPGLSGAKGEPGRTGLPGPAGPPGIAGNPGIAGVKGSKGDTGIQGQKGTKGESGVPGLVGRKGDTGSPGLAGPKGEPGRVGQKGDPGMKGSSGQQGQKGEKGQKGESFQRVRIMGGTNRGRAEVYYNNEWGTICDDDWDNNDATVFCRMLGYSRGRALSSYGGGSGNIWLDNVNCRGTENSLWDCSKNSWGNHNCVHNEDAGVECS", "assay": "Binding of nanoparticles with additional MARCO after saturation", "settings": "pre-incubation with saturation doses of SRCR or ECD", "description": "as §1"}},
  "data": [
    {"molecule": "COc1cccc2c1C(=O)c1c(O)c3c(c(O)c1C2=O)C[C@@](O)(C(=O)CO)C[C@@H]3O[C@H]1C[C@H](N)[C@H](O)[C@H](C)O1", "note": "[doxorubicin]", "values": [
      {"measurement": "doxorubicin uptake by liver CD11b+ cells, young versus old mice", "setting": "[1]", "value": "took up more doxorubicin than did the older mice"}
    ]},
    {"molecule": "B1", "values": [
      {"measurement": "nanoparticle uptake by macrophages with recombinant MARCO protein", "setting": "[2]", "value": "decreased nanoparticle uptake by macrophages"},
      {"measurement": "number of nanoparticles in the liver", "setting": "[3]", "value": "significantly reduced the number of nanoparticles in the liver"},
      {"measurement": "treatment outcome of ABRAXANE, older mice", "setting": "[4]; C57BL6 aged 50 weeks, ABRAXANE 20 mg/kg, SRCR 0.3 mg/kg or anti-MARCO antibody, day 18", "value": "does not enhance the treatment outcome of abraxane in older mice"},
      {"measurement": "efficacy of combination treatment at increased SRCR concentration", "setting": "[4]; nab-paclitaxel 20 mg/kg, SRCR 3 mg/kg vs 0.3 mg/kg", "value": "nor did further increasing the concentration of SRCR enhance the efficacy of combination treatment"},
      {"measurement": "therapeutic effect of ABRAXANE (tumor growth inhibition), young mice", "setting": "[4]; young (6 weeks) female C57BL6, ABRAXANE 20 mg/kg i.v., antibody 2.5, ECD 1.5, SRCR 0.3 mg/kg, day 18", "value": "enhanced the inhibition of tumor growth in young mice treated with nab-paclitaxel"},
      {"measurement": "treatment outcome of Doxil, older mice", "setting": "[5]; C57BL6 aged 50 weeks", "value": "does not enhance the treatment outcome of Doxil in older mice"},
      {"measurement": "relative doxorubicin concentrations in tumors", "setting": "[5]; Doxil fluorescence intensity per mg of tissue, IVIS", "value": "increased the relative doxorubicin concentrations in tumors"},
      {"measurement": "binding with nab-paclitaxel", "setting": "[6]", "value": "could strongly bind with nab-paclitaxel"},
      {"measurement": "binding of nanoparticles with additional MARCO after saturation with recombinant MARCO", "setting": "[7]", "value": "could not bind with additional MARCO"}
    ]}
  ]
}
